Test results published in publication PMC4030845, “DeSUMOylation Controls Insulin Exocytosis in Response to Metabolic Signals” (Biomolecules, 2012).

Molecular target: the molecule itself
Test: immunoblot of cell lysates after SDS-PAGE (dimer band); INS-1 832/13 cells infected with Ad-SENP1, incubated in KRBH buffer with or without H2O2 (legend: 200 µM; methods: 1 mM) for 30 min at 37 °C; lysed in Cell-Lytic-M with DTT; 8% SDS-PAGE; blot with anti-SENP1 (C12)

B1: SENP1 (sentrin-specific SUMO protease 1) (enzyme, UniProt Q9P0U3 1-644, looked up)
chain: MDDIADRMRMDAGEVTLVNHNSVFKTHLLPQTGFPEDQLSLSDQQILSSRQGHLDRSFTCSTRSAAYNPSYYSDNPSSDSFLGSGDLRTFGQSANGQWRNSTPSSSSSLQKSRNSRSLYLETRKTSSGLSNSFAGKSNHHCHVSAYEKSFPIKPVPSPSWSGSCRRSLLSPKKTQRRHVSTAEETVQEEEREIYRQLLQMVTGKQFTIAKPTTHFPLHLSRCLSSSKNTLKDSLFKNGNSCASQIIGSDTSSSGSASILTNQEQLSHSVYSLSSYTPDVAFGSKDSGTLHHPHHHHSVPHQPDNLAASNTQSEGSDSVILLKVKDSQTPTPSSTFFQAELWIKELTSVYDSRARERLRQIEEQKALALQLQNQRLQEREHSVHDSVELHLRVPLEKEIPVTVVQETQKKGHKLTDSEDEFPEITEEMEKEIKNVFRNGNQDEVLSEAFRLTITRKDIQTLNHLNWLNDEIINFYMNMLMERSKEKGLPSVHAFNTFFFTKLKTAGYQAVKRWTKKVDVFSVDILLVPIHLGVHWCLAVVDFRKKNITYYDSMGGINNEACRILLQYLKQESIDKKRKEFDTNGWQLFSKKSQEIPQQMNGSDCGMFACKYADCITKDRPINFTQQHMPYFRKRMVWEILHRKLL
notes: The adenovirus co-expresses GFP to identify infected cells; also called Ad-SENP1
  stoichiometry N: 2
